One block for each binder: values may come before it. Numbered stars: 1 amine (or outer) side, 2 acyl side, 3 side chain; on linkers, the order of the positions; unused ones are H or OH. Square brackets hold non-standard residues; d marks the D form. Side chains are listed from the residue outwards. * marks the point of attachment. C18 diacid = O=C(O)CCCCCCCCCCCCCCCCC(=O)*; C16 diacid = O=C(O)CCCCCCCCCCCCCCC(=O)*; γGlu = O=C(O)[C@H](CCC(=O)[*:2])N[*:1]; Chem. 28 = not defined here; AEEA = NCCOCCOCC(=O)O; Aib = CC(C)(N)C(=O)O
Legend:
Assay in all cases: cell-based or functional assay
[1] = biological target: T1, human GLP-1 receptor (human, UniProt P43220 24-463)
[2] = biological target: T2, human GIP receptor (human, UniProt P48546 22-466)
T2 sequence (looked up): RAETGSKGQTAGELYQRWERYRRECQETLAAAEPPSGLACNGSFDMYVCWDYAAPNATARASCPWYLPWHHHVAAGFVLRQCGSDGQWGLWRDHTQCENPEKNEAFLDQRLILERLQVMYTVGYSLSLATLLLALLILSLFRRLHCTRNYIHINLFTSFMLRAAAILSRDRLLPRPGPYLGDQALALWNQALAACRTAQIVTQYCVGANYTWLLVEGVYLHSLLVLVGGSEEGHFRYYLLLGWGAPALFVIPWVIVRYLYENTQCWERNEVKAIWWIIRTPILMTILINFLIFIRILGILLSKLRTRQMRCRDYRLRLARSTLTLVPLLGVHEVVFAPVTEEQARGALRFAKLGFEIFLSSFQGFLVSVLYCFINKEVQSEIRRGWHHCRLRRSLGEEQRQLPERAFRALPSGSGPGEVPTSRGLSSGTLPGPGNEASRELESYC

[3] = biological target: T3, human amylin-3(a) receptor (human, UniProt P30988 25-474; O60896 24-148)
T3 sequence (looked up) 1: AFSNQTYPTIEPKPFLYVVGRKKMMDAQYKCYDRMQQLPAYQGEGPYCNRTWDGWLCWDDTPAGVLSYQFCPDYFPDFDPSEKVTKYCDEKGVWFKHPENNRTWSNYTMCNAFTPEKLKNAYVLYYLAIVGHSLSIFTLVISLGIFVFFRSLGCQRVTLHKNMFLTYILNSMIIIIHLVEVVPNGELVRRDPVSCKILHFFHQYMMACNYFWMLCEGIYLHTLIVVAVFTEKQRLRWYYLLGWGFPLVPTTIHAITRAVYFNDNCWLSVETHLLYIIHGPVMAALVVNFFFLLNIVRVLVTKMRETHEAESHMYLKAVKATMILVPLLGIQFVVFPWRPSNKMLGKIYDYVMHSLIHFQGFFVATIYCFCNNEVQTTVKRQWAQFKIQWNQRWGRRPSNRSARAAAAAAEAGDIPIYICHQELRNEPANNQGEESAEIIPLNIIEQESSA
T3 sequence (looked up) 2: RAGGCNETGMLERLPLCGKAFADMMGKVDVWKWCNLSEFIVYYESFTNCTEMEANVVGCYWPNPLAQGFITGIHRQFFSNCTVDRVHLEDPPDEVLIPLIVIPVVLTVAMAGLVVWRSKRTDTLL

[4] = biological target: T1, human GLP-1 receptor; remark: listed apart in the source
[5] = biological target: T2, human GIP receptor; remark: listed apart in the source
[6] = biological target: T3, human amylin-3(a) receptor; remark: listed apart in the source

hGLP-1R Potency, no HSA, EC50 [pM] [1]: 14.4 pM
hGIPR Potency, no HSA, EC50 [pM] [2]: 2.02 pM
hAMYR3 Potency, no HSA, EC50 [pM] [3]: 2.53 pM
hGLP-1R Potency, 1% HSA, EC50 [pM] [4]: 57.5 pM
hGIPR Potency, 1% HSA, EC50 [pM] [5]: 8.96 pM
hAMYR3 Potency, 1% HSA, EC50 [pM] [6]: 136 pM
B1: Compound 113 (peptide)
peptide: Y[Aib]EGTFTSDYSILLEEQAAREFIEWLLAGGPSSGAGQAPGQAPGASHLSTAQTARLSAELHK([AEEA-AEEA-γGlu-C18 diacid])LATLPRTETGSGSP-NH2

hGLP-1R Potency, no HSA, EC50 [pM] [1]: 20.7 pM
hGIPR Potency, no HSA, EC50 [pM] [2]: 1.75 pM
hAMYR3 Potency, no HSA, EC50 [pM] [3]: 11.8 pM
hGLP-1R Potency, 1% HSA, EC50 [pM] [4]: 1680 pM
hGIPR Potency, 1% HSA, EC50 [pM] [5]: 558 pM
hAMYR3 Potency, 1% HSA, EC50 [pM] [6]: 349 pM
B2: Compound 26 (peptide)
peptide: Y[Aib]EGTFTSDYSILLEEQAAREFIEWLLAGGPSK(Chem. 28)GEASELSTAALGRLSAELHELATLPRTETGSGSP-NH2
modifications: reading uncertain

hGLP-1R Potency, no HSA, EC50 [pM] [1]: 43.3 pM
hGIPR Potency, no HSA, EC50 [pM] [2]: 4.29 pM
hAMYR3 Potency, no HSA, EC50 [pM] [3]: 2.27 pM
hGLP-1R Potency, 1% HSA, EC50 [pM] [4]: 126 pM
hGIPR Potency, 1% HSA, EC50 [pM] [5]: 17.2 pM
hAMYR3 Potency, 1% HSA, EC50 [pM] [6]: 45.2 pM
B3: Compound 114 (peptide)
peptide: Y[Aib]EGTFTSDYSILLEEQAAREFIEWLLAGGPSSGAGQAPGQAPGASHLSTAALARLSAELHK([AEEA-AEEA-γGlu-C18 diacid])LATLPRTETGSGSP-NH2

hGLP-1R Potency, no HSA, EC50 [pM] [1]: 4.37 pM
hGIPR Potency, no HSA, EC50 [pM] [2]: 2.42 pM
hAMYR3 Potency, no HSA, EC50 [pM] [3]: 3.65 pM
hGLP-1R Potency, 1% HSA, EC50 [pM] [4]: 336 pM
hGIPR Potency, 1% HSA, EC50 [pM] [5]: 321 pM
hAMYR3 Potency, 1% HSA, EC50 [pM] [6]: 269 pM
B4: Compound 112 (peptide)
peptide: H[Aib]HGTFTSDYSILLEEQAAREFIEWLLAGGPSK([γGlu-C18 diacid])GAPPPSGGGEASHLSTAQTARLSAELHRLADLPRTETGSGSP-NH2

hGLP-1R Potency, no HSA, EC50 [pM] [1]: 2.72 pM
hGIPR Potency, no HSA, EC50 [pM] [2]: 5.04 pM
hAMYR3 Potency, no HSA, EC50 [pM] [3]: 5.13 pM
hGLP-1R Potency, 1% HSA, EC50 [pM] [4]: 13.1 pM
hGIPR Potency, 1% HSA, EC50 [pM] [5]: 36.9 pM
hAMYR3 Potency, 1% HSA, EC50 [pM] [6]: 33.6 pM
B5: Compound 17 (peptide)
peptide: H[Aib]HGTFTSDYSILLEEQAAREFIEWLLAGGPSK([AEEA-AEEA-γGlu-C16 diacid])GEASELSTAALGRLSAELHRLATLPRTETGSGSP-NH2

hGLP-1R Potency, no HSA, EC50 [pM] [1]: 4.57 pM
hGIPR Potency, no HSA, EC50 [pM] [2]: 4.01 pM
hAMYR3 Potency, no HSA, EC50 [pM] [3]: 2.48 pM
hGLP-1R Potency, 1% HSA, EC50 [pM] [4]: 15 pM
hGIPR Potency, 1% HSA, EC50 [pM] [5]: 11.4 pM
hAMYR3 Potency, 1% HSA, EC50 [pM] [6]: 60 pM
B6: Compound 108 (peptide)
peptide: H[Aib]HGTFTSDYSILLEEQAAREFIEWLLAGGPSSGALQAPGQAPLASHLSTAQTARLSAELHK(Chem. 28)LATLPRTETGSGSP-NH2
modifications: reading uncertain
